B1: Cytochrome c-552 wild type, P15452 (protein)
chain: MKKFLLVAVVGLAGITFANEQLAKQKGCMACHDLKAKKVGPAYADVAKKYAGRKDAVDYLAGKIKKGGSGVWGSVPMPPQNVTDAEAKQLAQWILSIK
B2: Cytochrome c-551 wild type, P00099 (protein)
chain: MKPYALLSLLATGTLLAQGAWAEDPEVLFKNKGCVACHAIDTKMVGPAYKDVAAKFAGQAGAEAELAQRIKNGSQGVWGPIPMPPNAVSDDEAQTLAKWVLSQK

Conditions: Hydrogenobacter thermophilus (strain DSM 6534 / IAM 12695 / TK-6); pH 5; 25 °C; GdnHCl; DSC; Unknown; reversible: yes; whole UniProt chain shown

Row | Protein | denaturant midpoint (higher = more stable) [M]
1 | B1 | 4.47

Same assay, conditions: Hydrogenobacter thermophilus (strain DSM 6534 / IAM 12695 / TK-6); pH 5; Thermal; DSC; Unknown; reversible: yes; whole UniProt chain shown

Row | Protein | Tm [°C] | heat capacity change of unfolding [kcal/mol/K] | unfolding enthalpy (calorimetric) [kcal/mol]
2 | B1 | 87.5 | 0.9 | 36.7

Same assay, conditions: Pseudomonas aeruginosa (strain ATCC 15692 / DSM 22644 / CIP 104116 / JCM 14847 / LMG 12228 / 1C / PRS 101 / PAO1); pH 5; 25 °C; GdnHCl; DSC; Unknown; reversible: yes; whole UniProt chain shown

Row | Protein | denaturant midpoint (higher = more stable) [M]
3 | B2 | 2.16

Same assay, conditions: Pseudomonas aeruginosa (strain ATCC 15692 / DSM 22644 / CIP 104116 / JCM 14847 / LMG 12228 / 1C / PRS 101 / PAO1); pH 5; 47.3 °C; Thermal; DSC; Unknown; reversible: yes; whole UniProt chain shown

Row | Protein | Tm [°C] | heat capacity change of unfolding [kcal/mol/K]
4 | B2 | 47.3 | 1.07

Same assay, conditions: Pseudomonas aeruginosa (strain ATCC 15692 / DSM 22644 / CIP 104116 / JCM 14847 / LMG 12228 / 1C / PRS 101 / PAO1); pH 5; Thermal; DSC; Unknown; reversible: yes; whole UniProt chain shown

Row | Protein | Tm [°C] | heat capacity change of unfolding [kcal/mol/K] | unfolding enthalpy (calorimetric) [kcal/mol]
5 | B2 | 47.3 | 0.72 | 37.7
